Substitutions are numbered along the chain they refer to.
Assays:
[1] = target: T1, CsgG Y51A/F56A/N91R/K94Q/R97W-del(V105-I107) pore containing the C terminal strep tag (Escherichia coli, UniProt P0AEA2 16-277); assay: pore 4; complex made by incubating pore and peptide; DNA translocation, signal:noise
T1 construct: not shown: C-terminal Strep tag
T1 chain: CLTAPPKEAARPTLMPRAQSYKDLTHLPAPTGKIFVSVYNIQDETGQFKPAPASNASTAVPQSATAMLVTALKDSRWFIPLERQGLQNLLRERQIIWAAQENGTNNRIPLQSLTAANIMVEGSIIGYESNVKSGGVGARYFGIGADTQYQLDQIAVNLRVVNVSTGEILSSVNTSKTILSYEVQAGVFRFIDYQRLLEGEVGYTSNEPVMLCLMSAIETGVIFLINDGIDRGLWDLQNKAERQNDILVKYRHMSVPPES

[2] = target: T2, CsgG Y51A/F56Q/N91R/K94Q/R97W-del(V105-I107) pore containing the C terminal strep tag (Escherichia coli, UniProt P0AEA2 16-277); assay: pore 1; complex made by incubating pore and peptide; DNA translocation, signal:noise
T2 construct: not shown: C-terminal Strep tag
T2 chain: T1 chain with A56Q

[3] = target: T3, CsgG Y51S/N55V/F56Q/N91R/K94Q/R97W-del(V105-I107) pore containing the C terminal strep tag (Escherichia coli, UniProt P0AEA2 16-277); assay: pore 8; complex made by incubating pore and peptide; DNA translocation, signal:noise
T3 construct: not shown: C-terminal Strep tag
T3 chain: T1 chain with A51S, N55V, A56Q

[4] = target: T4, CsgG Y51A/F56I/N91R/K94Q/R97W-del(V105-I107) pore containing the C terminal strep tag (Escherichia coli, UniProt P0AEA2 16-277); assay: pore 5; complex made by incubating pore and peptide; DNA translocation, signal:noise
T4 construct: F561 read as F56I; also called Y51A/F561/N91R/K94Q/R97W-del(V105-I107) (so in the source); not shown: C-terminal Strep tag
T4 chain: T1 chain with A56I

[5] = target: T5, CsgG Y51T/N55V/F56Q/N91R/K94Q/R97W-del(V105-I107) pore containing the C terminal strep tag (Escherichia coli, UniProt P0AEA2 16-277); assay: pore 9; complex made by incubating pore and peptide; DNA translocation, signal:noise
T5 construct: not shown: C-terminal Strep tag
T5 chain: T1 chain with A51T, N55V, A56Q

[6] = target: T6, CsgG Y51S/N55A/F56Q/N91R/K94Q/R97W-del(V105-I107) pore (Escherichia coli, UniProt P0AEA2 16-277); assay: pore 7; complex made by incubating pore and peptide; DNA translocation, signal:noise
T6 chain: T1 chain with A51S, N55A, A56Q

[7] = target: T7, CsgG Y51A/F56V/N91R/K94Q/R97W-del(V105-I107) pore (Escherichia coli, UniProt P0AEA2 16-277); assay: pore 6; complex made by incubating pore and peptide; DNA translocation, signal:noise
T7 chain: T1 chain with A56V

[8] = target: T8, CsgG Y51A/N55V/F56Q/N91R/K94Q/R97W-del(V105-I107) pore containing the C terminal strep tag (Escherichia coli, UniProt P0AEA2 16-277); assay: reconstitution of purified pore with synthetic peptide; SDS-PAGE after heating
T8 construct: also called Y51A/F56Q/N55V/N91R/K94Q/R97W-del(V105-I107); not shown: C-terminal Strep tag
T8 chain: T1 chain with N55V, A56Q

[9] = target: T9, CsgG Y51A/N55I/F56Q/N91R/K94Q/R97W-del(V105-I107) pore containing the C terminal strep tag (Escherichia coli, UniProt P0AEA2 16-277); assay: pore 2; complex made by incubating pore and peptide; DNA translocation, signal:noise
T9 construct: N551 read as N55I; also called Y51A/N551/F56Q/N91R/K94Q/R97W-del(V105-I107) (so in the source); not shown: C-terminal Strep tag
T9 chain: T1 chain with N55I, A56Q

Measured: binding result

GTMTFQFRNPNFGGNPNNGAFLLNSAQAQNSYKDP [CsgF-(1-35) synthetic peptide]
binds: all assays above
